The target in data set [1] is Caulobacter crescentus suppressor of copper sensitivity protein C, wild type (Caulobacter crescentus). Put plainly: mass photometry; reduced proteins diluted to ~150 nM and added in 2 µl steps to 10 µl buffer (25 mM HEPES pH 7.5, 150 mM NaCl); Refeyn One; mass of the main peak against the monomer's mass.
The target is the same in data set [2]. The data set is described as follows: SEC-SAXS; inline SEC-SAXS (S200 5/150 GL) with sheath flow, 283 K, injection 5.6 mg/ml; molecular mass from the Porod volume. (In gel filtration, larger molecules generally elute earlier.)
In data set [3] the target is Proteus mirabilis ScsC (Proteus mirabilis). The data set is described as follows: mass photometry; reduced proteins diluted to ~150 nM and added in 2 µl steps to 10 µl buffer (25 mM HEPES pH 7.5, 150 mM NaCl); Refeyn One; mass of the main peak against the monomer's mass.
Data set [4] addresses Caulobacter crescentus suppressor of copper sensitivity protein C, C2S variant (Caulobacter crescentus). The data set is described as follows: crystal structure; reduced CcScsC C2S at 130 mg/ml, 37-39% MPD, 0.02 M CaCl2, 0.2 M sodium acetate pH 7.25, 4°C; space group P63, one protomer per asymmetric unit, trimer by crystallographic symmetry.
Data set [5] shares this target. The data set is described as follows: mass photometry; reduced proteins diluted to ~150 nM and added in 2 µl steps to 10 µl buffer (25 mM HEPES pH 7.5, 150 mM NaCl); Refeyn One; mass of the main peak against the monomer's mass.
Data set [6] concerns the molecule itself. The description is as above.

What is called stoichiometry N is a count of units in the complex or per binding partner. As to “Caulobacter crescentus suppressor of copper sensitivity protein C, wild type (enzyme)”, the stoichiometry N in data set [1] and in data set [2] was 3 each time.

Proteus mirabilis ScsC (enzyme) gave a stoichiometry N in data set [3] of 3.

On to “Caulobacter crescentus suppressor of copper sensitivity protein C, C2S variant (enzyme)”, for which the stoichiometry N in data set [4] and in data set [5] was 3 each time.

B1: Escherichia coli DsbC (enzyme, UniProt P0AEG6 21-236, looked up)
chain: DDAAIQQTLAKMGIKSSDIQPAPVAGMKTVLTNSGVLYITDDGKHIIQGPMYDVSGTAPVNVTNKMLLKQLNALEKEMIVYKAPQEKHVITVFTDITCGYCHKLHEQMADYNALGITVRYLAFPRQGLDSDAEKEMKAIWCAKDKNKAFDDVMAGKSVAPASCDVDIADHYALGVQLGVSGTPAVVLSNGTLVPGYQPPKEMKEFLDEHQKMTSGK
notes: E. coli DsbC, UniProt P0AEG6; monomer printed as 24.1 kDa; Control protein of the mass photometry; Probably the mature protein without signal peptide; also called EcDsbC
For B1, in data set [6], the “stoichiometry N” value came out at 2.
